Data: PMC7969121, “Structural and Kinetic Characterization of Hyperthermophilic NADH-Dependent Persulfide Reductase from Archaeoglobus fulgidus” (Archaea, 2021)

B1: AfNpsr; A. fulgidus Npsr (Archaeoglobus fulgidus DSM 4304) (protein)
chain: MNVVVIGGGAAGLKAASRIRRKDGDASITVVEAGKYVSLGRCGLPYYVGGLVHEVDNLRETTYGAVRDEAYFKKLKNIDVLTETVATEIDRSRKTVKIVRNGSEDELNYDYLVIATGARPAKPPIEGIEAEGVVTLTSAEEAEKIIEMWEEGAEKAVVIGAGFIGLESAEALKNLDMEVTVIEMMDRVAPAMLDREMAVLVENHLREKGVNVVTSTRVEKIVSQDDKVRAVIANGKEYPADVVVVATGIKPNSELAEKAGLKIGETGAIWVDEYMRTSDESIYAGGDCVETTCLVTGKKIIAPFGDVANKQGRVIGENITGGRAVFPGVIRTAIFKVFDFTAASAGVNEQMAKEAGLDYFTVIAPSPDRAHYYPQANYIRLKLIVEKGSWRVIGAQGVGMGEVAKRIDVLSTAIQAGMTIDQLANLDLAYAPPYSPALDPVITIANVAMNKRDGLFEGINVFELKEKLEKEDIVILDVRSEEEFKTRRIESEKVIHIPILELRERLDEIPRDKEIVVVCAIGLRSFEASRILKHAGFEKVKILEGGMAFWF
notes: codon-optimized full-length gene in pET21b+, C-terminal His6-tag, E. coli BL21(DE3); FAD added; FAD domain 1-448, rhodanese domain 449-550

What was measured:
[1] = target: T1, AfNpsr; A. fulgidus Npsr (Archaeoglobus fulgidus, UniProt O29847); assay: X-ray crystal structure, […] Å; format: binding; details: tightly bound catalytic CoA in active site near Cys 42
T1 construct: gene AF_0400; codon-optimized full-length gene in pET21b+, C-terminal His6-tag, E. coli BL21(DE3); FAD added; FAD domain 1-448, rhodanese domain 449-550

[2] = substrate: N[C@@H](CSS)C(=O)O; assay: NADH oxidation at A340, Michaelis-Menten fit; format: biochemical, Archaeoglobus fulgidus; details: 100 μM NADH, aerobic, 50 mM sodium phosphate pH 7.5, 70°C, persulfide made in situ from disulfide + 2-fold sodium sulfide, oxidase background not subtracted
Excerpt: (§1) NADH oxidation at A340, Michaelis-Menten fit on AfNpsr; A. fulgidus Npsr

[3] = substrate: CC(C)(COP(=O)(O)OP(=O)(O)OC[C@H]1O[C@@H](n2cnc3c(N)ncnc32)[C@H](O)[C@@H]1OP(=O)(O)O)[C@@H](O)C(=O)NCCC(=O)NCCSS; assay: NADH oxidation at A340, Michaelis-Menten fit; format: biochemical, Archaeoglobus fulgidus; details: 100 μM NADH, aerobic, 50 mM sodium phosphate pH 7.5, 70°C, persulfide made in situ from disulfide + 2-fold sodium sulfide, oxidase background not subtracted
Excerpt: as §1

[4] = substrate: NC(=O)C1=CN([C@@H]2O[C@H](COP(=O)(O)OP(=O)(O)OC[C@H]3O[C@@H](n4cnc5c(N)ncnc54)[C@H](O)[C@@H]3O)[C@@H](O)[C@H]2O)C=CC1; assay: NADH oxidase, A340, Michaelis-Menten fit; format: biochemical, Archaeoglobus fulgidus; details: aerobic, O2 as acceptor, no di-, per- or polysulfide, 50 mM sodium phosphate pH 7.5, 70°C
Excerpt: NADH oxidase, A340, Michaelis-Menten fit on AfNpsr; A. fulgidus Npsr

[5] = substrate: O=C(O)c1cc(SSc2ccc([N+](=O)[O-])c(C(=O)O)c2)ccc1[N+](=O)[O-]; assay: TNB formation at A412, Michaelis-Menten fit; format: biochemical, Archaeoglobus fulgidus; details: 100 μM NADH, aerobic, 50 mM sodium phosphate pH 7.5, 70°C, buffer background subtracted
Excerpt: TNB formation at A412, Michaelis-Menten fit on AfNpsr; A. fulgidus Npsr

Row | Molecule | X-ray crystal structure, 3.1 Å [1] | Km [2] | kcat [2] | kcat/Km [2] | Km [3] | kcat [3] | kcat/Km [3] | Km [4] | kcat [4] | kcat/Km [4] | Km [5] | kcat [5] | kcat/Km [5]
1 | CC(C)(COP(=O)(O)OP(=O)(O)OC[C@H]1O[C@@H](n2cnc3c(N)ncnc32)[C@H](O)[C@@H]1OP(=O)(O)O)[C@@H](O)C(=O)NCCC(=O)NCCS [CoA] | In AfNpsr, CoA is deeply buried | – | – | – | – | – | – | – | – | – | – | – | –
2 | B1 | – | 3410 ± 630 µM | 230 ± 23 s⁻¹ | 67600 ± 11000 M⁻¹ s⁻¹ | 547 ± 41 µM | 13.2 ± 0.3 s⁻¹ | 24100 ± 1400 M⁻¹ s⁻¹ | 20.6 ± 5.1 µM | 7.15 ± 0.51 s⁻¹ | 347000 ± 75000 M⁻¹ s⁻¹ | 743 ± 196 µM | 2.44 ± 0.14 s⁻¹ | 3280 ± 480 M⁻¹ s⁻¹
